In PMC5657976:

Assays:
[1] = target: GST-obscurin-Ig58/Ig59^WT (human) (UniProt Q5VST9); assay: pull-down; 12 ug GST fusion protein on glutathione-Sepharose with 5 ul of the translation reaction; 10 mM Tris-HCl pH 7.9, 150 mM NaCl, 0.5% NONIDET P-40, 1 mM DTT, 1.5 hrs at 4°C; anti-myc Western blot, densitometry normalised to GST protein
[2] = target: GST-linked titin ZIg9/ZIg10 (human) (UniProt Q8WZ42); assay: SPR; Nicoya OpenSPR, GST-linked titin ZIg9/ZIg10 immobilised on an Au-GST chip; obscurin Ig58/Ig59 injected at 50 ul/min; 20 mM Tris pH 7.5, 50 mM NaCl; 27°C (methods; 22°C in the legend of S11 Fig); 1:1 interaction model

Row | Substance | bound fraction, fold over GST-Ig58/Ig59^MUT [1] | Kd [2]
1 | myc-tagged titin domains ZIg9/ZIg10 (from UniProt Q8WZ42-12 1-35991) (domain or fragment) | 2 fold | –
2 | obscurin Ig58/Ig59 (wild type) (from UniProt Q5VST9 1-7968) (domain or fragment) | – | 108 nM
3 | obscurin Ig58/Ig59 p.Arg4444Trp (domain or fragment) | – | 1600 nM
